For one assay, the target named is T1, Hsp70 (Homo sapiens, UniProt P0DMV8).
T1 construct: gene HSPA1A
Put plainly: microscale thermophoresis with NT-647-labeled purified Hsp70; supported by DARTS and substrate-binding assay.

Assay [1] deals with Caspase-3 (human (endogenous in U-937)) (UniProt P42574). In words: co-IP; as a4, but biotinylated Hsp70 pretreated with 32 µM BT44.
The target is the same in assay [2]. In words: ELISA; same competitive protein-protein interaction assay, read as competition: cellular Hsp70 of the lysate (raised by heat shock or hsp70 transfection) holds Caspase-3 of the lysate away from the immobilised pure Hsp70.

As usually defined, the Kd is the free concentration of one partner at which half of the binding sites on the other are occupied at equilibrium, for simple one-to-one binding. A high value points to lower affinity.

Sequence of Caspase-3 (human (endogenous in U-937)) (P42574 whole entry): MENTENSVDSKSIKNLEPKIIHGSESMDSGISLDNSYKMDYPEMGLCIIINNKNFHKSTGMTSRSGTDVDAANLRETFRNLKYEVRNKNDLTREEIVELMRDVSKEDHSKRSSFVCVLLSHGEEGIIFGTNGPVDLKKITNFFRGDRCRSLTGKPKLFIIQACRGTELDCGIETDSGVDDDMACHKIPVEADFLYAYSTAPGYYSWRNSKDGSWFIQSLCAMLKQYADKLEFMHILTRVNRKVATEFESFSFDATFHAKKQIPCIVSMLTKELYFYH
Sequence of Cellular Hsp70 of U-937 cells (P0DMV8 whole entry): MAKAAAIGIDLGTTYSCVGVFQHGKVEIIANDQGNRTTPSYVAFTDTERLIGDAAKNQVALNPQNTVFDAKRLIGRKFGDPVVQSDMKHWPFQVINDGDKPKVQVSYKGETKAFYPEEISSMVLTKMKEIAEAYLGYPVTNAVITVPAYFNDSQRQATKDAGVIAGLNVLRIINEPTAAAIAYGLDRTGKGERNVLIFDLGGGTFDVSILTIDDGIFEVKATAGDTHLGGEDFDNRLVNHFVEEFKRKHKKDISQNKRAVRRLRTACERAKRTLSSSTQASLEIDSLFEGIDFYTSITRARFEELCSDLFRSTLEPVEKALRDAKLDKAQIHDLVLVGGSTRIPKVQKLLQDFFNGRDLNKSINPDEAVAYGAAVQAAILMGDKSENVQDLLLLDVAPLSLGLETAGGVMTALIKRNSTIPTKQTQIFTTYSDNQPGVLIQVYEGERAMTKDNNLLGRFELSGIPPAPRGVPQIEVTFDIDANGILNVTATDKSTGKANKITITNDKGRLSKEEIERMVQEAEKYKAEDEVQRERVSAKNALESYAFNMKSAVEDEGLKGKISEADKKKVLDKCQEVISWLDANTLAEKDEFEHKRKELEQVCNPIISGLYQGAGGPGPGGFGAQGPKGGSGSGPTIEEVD
Sequence of Biotinylated Hsp70 (P0DMV8 whole entry): as above
T1 sequence (P0DMV8 2-641): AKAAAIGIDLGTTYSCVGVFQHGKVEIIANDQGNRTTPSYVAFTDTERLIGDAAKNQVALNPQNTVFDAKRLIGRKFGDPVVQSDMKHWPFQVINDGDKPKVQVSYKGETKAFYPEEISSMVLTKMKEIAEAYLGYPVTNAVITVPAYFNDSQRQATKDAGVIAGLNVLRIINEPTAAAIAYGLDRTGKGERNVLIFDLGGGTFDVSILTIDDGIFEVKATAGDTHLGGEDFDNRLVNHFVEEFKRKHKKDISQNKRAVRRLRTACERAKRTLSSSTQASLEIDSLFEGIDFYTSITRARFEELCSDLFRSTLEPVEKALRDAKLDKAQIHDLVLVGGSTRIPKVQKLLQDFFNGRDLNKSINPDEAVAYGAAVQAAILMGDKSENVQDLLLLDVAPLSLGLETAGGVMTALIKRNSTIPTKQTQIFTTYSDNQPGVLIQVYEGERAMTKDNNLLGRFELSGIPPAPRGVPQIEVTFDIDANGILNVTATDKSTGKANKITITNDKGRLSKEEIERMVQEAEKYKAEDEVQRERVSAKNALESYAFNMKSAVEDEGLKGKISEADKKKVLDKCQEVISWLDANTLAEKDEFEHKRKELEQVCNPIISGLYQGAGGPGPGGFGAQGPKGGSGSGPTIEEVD

As for `CCc1cc(-c2n[nH]cc2-c2ccc3c(c2)OCO3)c(O)cc1OC1OC(CO)C(O)C(O)C1O` (stereo not drawn) [BT44, 2-[4-(4-Benzo[1,3]dioxol-5-yl-1H-pyrazol-3-yl)-2-ethyl-5-hydroxy-phenoxy]-6-hydroxymethyl-tetrahydro-pyran-3,4,5-triol], the Kd on Hsp70 came to 5.2 ± 0.3 µM.

For the compound “Biotinylated Hsp70 (from UniProt P0DMV8 1-641) (natural protein)”, the fold lower amount bound with BT44 than without BT44 in assay [1] is 10 fold.

Consider “Cellular Hsp70 of U-937 cells (from UniProt P0DMV8 1-641) (natural protein)”, for which the percent decrease of Caspase-3 bound to immobilized Hsp70 (against U-937wt cells treated with etoposide alone) in assay [2] is 35 to 50%.
